For assay [1], the target named is α-Synuclein 91-140 peptide (human). Nature of the assay: peptide ELISA, serum, 0 w.
The target of a further assay is β-Syn (103-134) peptide. Nature of the assay: peptide ELISA, serum, 0 w.

Consider 1 substance from patent US20210138049A1.

Several values for one entry are separate records, joined by “and”; a condition that tells them apart may be missing. Equal entries are not always repeated.

“preimmune guinea pig serum / antibodies purified from preimmune serum of naïve guinea pigs (antibody)”: the ELISA Log10 Titer was 0.1 Log10 titer and 0.2 Log10 titer and 0.3 Log10 titer in assay [1]; 0.1 Log10 titer with β-Syn (103-134) peptide.
